Reference: patent publication US20060166868A1, “Vegf peptides and their use” (priority 2002, published 2006)
No end group written: not given here.

How the values were obtained:
[1] = molecular target: T1, Neuropilin-1 (NP-1) (Homo sapiens, UniProt O14786); assay: 125I-VEGF165 binding to PAE/NP1 cells
T1 construct: expressed in transfected cells; host or cells: porcine aortic endothelial cells (PAE/NP1)

[2] = molecular target: T2, NP-1 (Homo sapiens, UniProt O14786); assay: radiolabelled VEGF binding to MDA-MB-231 cells; conditions: FIG. 4; cells naturally express only NP-1 receptors for VEGF
T2 construct: the breast carcinoma cell line MDA-MB-231, that naturally expresses only NP-1 receptors for VEGF; endogenous in cells; host or cells: MDA-MB-231

[3] = test system: KDR; assay: KDR Phosphorylation Assay; format: cell-based; conditions: FIG. 3; peptide at 10, 30 and 100 mM for 15 minutes, then 25 ng/ml VEGF for 10 minutes; immunoblot
Description: Cells were pretreated with peptide at 10, 30 and 100 mM for 15 minutes followed by treatment with 25 ng/ml VEGF for 10 minutes, and cells were immediately extracted by lysis buffer (64 mM Tris-HCl, pH 6.8, 0.2 mM Na3VO4, 2% SDS, 10% glycerol, 0.1 mM AEBSF, […] leupeptin). KDR phosphorylation was determined by immunoblotting cell extracts with antibodies which recognise either KDR phosphorylated at Tyrosines 1054 and 1059 (purchased from Oncogene Research Products Inc.) or total KDR (purchased from Santa Cruz Inc.). Immunoreactive bands were visualised by chemiluminescence using horseradish peroxidase-conjugated anti-rabbit IgG and ECL reagent.

[4] = molecular target: T3, Flt-1 (Homo sapiens, UniProt P17948); assay: 125I-VEGF165 binding to PAE/Flt-1 cells; conditions: FIG. 2; cells expressing only Flt-1
T3 construct: expressed in transfected cells; host or cells: porcine aortic endothelial cells (PAE/Flt-1)

[5] = molecular target: T4, KDR (Homo sapiens, UniProt P35968); assay: 125I-VEGF165 binding to PAE/KDR cells; conditions: FIG. 2; cells expressing only KDR
T4 construct: expressed in transfected cells; host or cells: porcine aortic endothelial cells (PAE/KDR)

[6] = test system: human umbilical vein endothelial cells (HUVEC) which express NP-1, KDR and Flt-1; assay: radiolabelled VEGF binding to HUVEC; conditions: FIG. 2
[7] = test system: HUVECs; conditions: Soker et al, J. Biol. Chem. 272 (1997); cited from earlier work

T1 sequence (O14786 22-923, species assumed): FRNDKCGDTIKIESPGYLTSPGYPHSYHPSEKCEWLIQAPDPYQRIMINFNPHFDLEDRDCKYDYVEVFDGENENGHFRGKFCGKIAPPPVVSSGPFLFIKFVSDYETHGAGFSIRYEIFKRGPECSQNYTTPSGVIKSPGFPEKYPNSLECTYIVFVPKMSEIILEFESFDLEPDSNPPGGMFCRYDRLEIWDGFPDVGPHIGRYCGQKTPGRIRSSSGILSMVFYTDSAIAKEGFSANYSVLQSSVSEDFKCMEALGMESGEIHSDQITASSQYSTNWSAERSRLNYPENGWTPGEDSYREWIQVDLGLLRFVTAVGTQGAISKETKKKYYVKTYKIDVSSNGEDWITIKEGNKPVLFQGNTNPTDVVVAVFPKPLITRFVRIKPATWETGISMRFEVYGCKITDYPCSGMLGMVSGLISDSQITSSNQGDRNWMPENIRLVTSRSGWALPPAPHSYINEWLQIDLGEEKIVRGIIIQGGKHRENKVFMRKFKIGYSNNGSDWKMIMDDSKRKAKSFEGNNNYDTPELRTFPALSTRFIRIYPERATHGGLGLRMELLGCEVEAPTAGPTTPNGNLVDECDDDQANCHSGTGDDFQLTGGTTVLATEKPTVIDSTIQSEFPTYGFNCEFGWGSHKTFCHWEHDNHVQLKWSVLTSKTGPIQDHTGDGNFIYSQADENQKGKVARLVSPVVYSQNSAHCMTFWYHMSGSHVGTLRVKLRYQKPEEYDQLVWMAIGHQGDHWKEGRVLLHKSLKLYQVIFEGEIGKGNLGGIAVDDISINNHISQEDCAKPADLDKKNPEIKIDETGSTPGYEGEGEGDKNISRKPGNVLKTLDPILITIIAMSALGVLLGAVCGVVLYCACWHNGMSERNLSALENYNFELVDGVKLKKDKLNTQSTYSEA
T2 sequence (O14786 22-923): as the sequence (O14786 22-923, species assumed) above
T4 sequence (P35968 20-1356, species assumed): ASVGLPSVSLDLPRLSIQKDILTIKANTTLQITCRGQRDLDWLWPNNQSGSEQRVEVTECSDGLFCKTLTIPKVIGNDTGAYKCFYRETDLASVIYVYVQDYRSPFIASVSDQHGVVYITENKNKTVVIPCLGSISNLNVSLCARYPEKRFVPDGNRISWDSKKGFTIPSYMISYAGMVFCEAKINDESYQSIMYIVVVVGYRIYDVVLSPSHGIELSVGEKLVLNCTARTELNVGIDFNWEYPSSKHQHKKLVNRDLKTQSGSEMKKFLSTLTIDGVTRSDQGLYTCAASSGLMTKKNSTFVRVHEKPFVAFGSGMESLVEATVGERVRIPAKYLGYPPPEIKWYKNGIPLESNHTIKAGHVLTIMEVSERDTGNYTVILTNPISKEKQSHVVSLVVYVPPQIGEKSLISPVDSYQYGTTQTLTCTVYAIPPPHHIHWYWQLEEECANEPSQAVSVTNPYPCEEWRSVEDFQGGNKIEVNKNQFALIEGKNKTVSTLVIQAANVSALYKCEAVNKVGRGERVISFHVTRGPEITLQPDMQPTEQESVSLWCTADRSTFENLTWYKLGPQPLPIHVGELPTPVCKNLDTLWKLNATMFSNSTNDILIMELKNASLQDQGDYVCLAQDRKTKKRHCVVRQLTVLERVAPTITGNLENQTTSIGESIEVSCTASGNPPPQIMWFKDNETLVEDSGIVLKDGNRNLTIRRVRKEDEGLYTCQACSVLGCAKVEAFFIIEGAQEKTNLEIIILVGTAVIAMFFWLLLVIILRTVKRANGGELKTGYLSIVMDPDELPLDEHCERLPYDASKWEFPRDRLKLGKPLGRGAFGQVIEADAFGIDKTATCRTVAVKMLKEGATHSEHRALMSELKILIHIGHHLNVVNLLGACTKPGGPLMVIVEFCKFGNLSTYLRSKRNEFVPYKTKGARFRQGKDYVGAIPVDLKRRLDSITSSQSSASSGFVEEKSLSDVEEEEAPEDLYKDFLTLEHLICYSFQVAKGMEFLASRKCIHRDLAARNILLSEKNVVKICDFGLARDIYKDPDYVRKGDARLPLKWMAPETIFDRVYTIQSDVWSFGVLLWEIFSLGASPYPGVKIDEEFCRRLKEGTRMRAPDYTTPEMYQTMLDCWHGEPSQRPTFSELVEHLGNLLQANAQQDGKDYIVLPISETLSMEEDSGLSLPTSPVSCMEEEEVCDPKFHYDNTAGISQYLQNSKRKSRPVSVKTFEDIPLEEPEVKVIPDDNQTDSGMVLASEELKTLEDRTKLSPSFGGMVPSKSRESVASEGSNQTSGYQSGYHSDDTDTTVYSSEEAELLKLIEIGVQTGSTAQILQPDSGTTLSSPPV
T3 sequence (P17948 27-1338, species assumed): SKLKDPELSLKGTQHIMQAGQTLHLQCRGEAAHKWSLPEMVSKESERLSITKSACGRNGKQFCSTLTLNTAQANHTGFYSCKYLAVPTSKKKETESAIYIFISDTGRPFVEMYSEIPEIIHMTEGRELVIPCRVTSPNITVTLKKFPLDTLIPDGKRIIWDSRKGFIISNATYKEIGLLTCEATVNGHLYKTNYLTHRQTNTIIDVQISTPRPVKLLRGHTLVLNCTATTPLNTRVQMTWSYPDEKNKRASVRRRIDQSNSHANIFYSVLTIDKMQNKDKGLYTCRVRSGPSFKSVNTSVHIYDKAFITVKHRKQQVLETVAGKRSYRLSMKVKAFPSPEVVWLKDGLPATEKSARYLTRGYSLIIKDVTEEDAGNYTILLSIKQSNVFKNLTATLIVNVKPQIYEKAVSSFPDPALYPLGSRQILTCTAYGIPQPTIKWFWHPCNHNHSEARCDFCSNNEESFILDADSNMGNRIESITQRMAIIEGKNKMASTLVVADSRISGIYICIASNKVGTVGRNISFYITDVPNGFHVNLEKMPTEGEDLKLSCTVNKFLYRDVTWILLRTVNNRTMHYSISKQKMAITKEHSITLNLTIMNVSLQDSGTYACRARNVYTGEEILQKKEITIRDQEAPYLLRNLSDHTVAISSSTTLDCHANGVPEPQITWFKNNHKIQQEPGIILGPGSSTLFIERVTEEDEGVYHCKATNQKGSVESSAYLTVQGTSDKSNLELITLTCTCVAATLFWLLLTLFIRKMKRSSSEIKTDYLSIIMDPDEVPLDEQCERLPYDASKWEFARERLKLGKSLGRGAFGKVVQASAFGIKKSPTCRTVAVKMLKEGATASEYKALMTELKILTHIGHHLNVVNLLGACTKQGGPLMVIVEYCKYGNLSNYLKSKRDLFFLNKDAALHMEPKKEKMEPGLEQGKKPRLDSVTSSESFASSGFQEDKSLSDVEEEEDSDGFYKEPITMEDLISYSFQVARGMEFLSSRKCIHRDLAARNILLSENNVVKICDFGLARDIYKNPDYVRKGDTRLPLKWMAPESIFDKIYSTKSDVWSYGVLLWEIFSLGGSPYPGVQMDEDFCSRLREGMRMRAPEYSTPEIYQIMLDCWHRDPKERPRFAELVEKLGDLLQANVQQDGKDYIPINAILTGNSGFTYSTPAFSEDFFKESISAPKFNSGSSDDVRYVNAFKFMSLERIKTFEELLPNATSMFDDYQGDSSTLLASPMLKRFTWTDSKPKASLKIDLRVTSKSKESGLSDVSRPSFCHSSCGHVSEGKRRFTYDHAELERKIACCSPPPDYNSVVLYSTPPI

| Substance | effect on 125I-VEGF165 binding to PAE/NP1 cells ([1]; FIG. 1, peptide 100 μM, porcine aortic endothelial cells expressing only NP-1) | inhibition of 125I-VEGF165 binding to PAE/NP-1 cells ([1]; FIG. 2) | binding of radiolabelled VEGF to breast carcinoma cell line MDA-MB-231 [2] | VEGF-induced KDR phosphorylation [3] | effect on 125I-VEGF165 binding to PAE/Flt-1 cells [4] | effect on 125I-VEGF165 binding to PAE/KDR cells [5] | radiolabelled VEGF binding to HUVEC [6] | inhibition of VEGF binding to HUVECs [7] |
| --- | --- | --- | --- | --- | --- | --- | --- | --- |
| EG3287: bicyclic form of SEQ ID NO. 2, SCKNTDSRCKARQLELNERTCRCDKPRR, amino acids 138 to 165 within VEGF (not fully specified (N-terminus, C-terminus, bridges); also: bicyclic, two disulfides, pairing not given here; listed as Homo sapiens) | inhibition | specific, selective inhibition | inhibited | inhibited | no effect | no effect | inhibited |  |
| SEQ ID NO. 1: CSCKNTDSRCKARQLELNERTCRC, shortest active peptide of Soker et al; amino acids 22-44 of exon 7 and amino acid 1 of exon 8 (listed as Homo sapiens) |  |  |  |  |  |  |  | active |
